Measurements as given in US20170291954A1.

How the values were obtained:
GPC3-GST fusion protein [1] = assay: ELISA, GPC3-GST fusion protein as antigen at 1 ug/ml
GPC3-GST fusion protein [2] = assay: ELISA, GPC3-GST fusion protein as antigen at 0.5 ug/ml

Sequence of GPC3-GST fusion protein (P51654 368-548): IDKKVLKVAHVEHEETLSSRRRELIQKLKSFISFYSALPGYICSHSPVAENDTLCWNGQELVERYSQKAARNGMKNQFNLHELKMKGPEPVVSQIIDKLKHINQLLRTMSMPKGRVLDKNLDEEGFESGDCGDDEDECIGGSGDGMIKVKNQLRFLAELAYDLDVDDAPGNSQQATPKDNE

EC50 (GPC3-GST fusion protein [1]): 43.1 nM
EC50 (GPC3-GST fusion protein [2]): 52 nM
B1: 4E5 scFv, secreted from yeast as a fusion protein and purified on nickel-HIS beads (scFv, part only; not given: linker and fusion partner, not shown: large carriers)
scFv, part: QVQLQQSGAELVRPGASVKLSCKASGYTFNDYEMHWVKQTPVHGLKWIGALEPKTGDTAYSQKFKGKATLTADKSSSTAYMELRSLTSEDSAVYYCTSCYYYTYSGQGTLVTVSADVVMTQTPLSLPVSLGDQASISCRSSQSLVHSNGNTYLHWYLQKPGQSPKLLIYKVSNRFSGVPDRFSGSGSGTDFTLKISRVEAEDLGVYFCSQNTPVPPKFGSGTKLEIK
